Assay results taken from the DeepSol protein solubility set.

Assay: soluble on expression in E. coli; label from the status in PepcDB or PDB records

| Sequence | soluble on expression in E. coli |
| --- | --- |
| MNITKAFCLSIALLGASNMQAITNSDFVIQQDNTKINNYQTNRPETSKRLFVSQAVEQQIAHIKQLLTNARLAWMFENCFPNTLDTTVHFDGKDDTFVYTGDIHAMWLRDSGAQVWPYVQLANKDAELKKMLAGVIKRQFKCINIDPYANAFNMNSEGGEWMSDLTDMKPELHERKWEIDSLCYPIRLAYHYWKTTGDASIFSDEWLTAIAKVLKTFKEQQRKEDPKGPYRFQRKTERALDTMTNDGWGNPVKPVGLIASAFRPSDDATTFQFLVPSNFFAVTSLRKAAEILNTVNKKPDLAKECTTLSNEVETALKKYAVYNHPKYGKIYAFEVDGFGNQLLMDDANVPSLIALPYLGDVKVNDPIYQNTRKFVWSEDNPYFFKGTAGEGIGGPHIGYDMIWPMSIMMKAFTSQNDAEIKTCIKMLMDTDAGTGFMHESFHKNDPKNFTRSWFAWQNTLFGELILKLVNEGKVDLLNSIQLEHHHHHH | not soluble |
| MNIVIAAVGGQGAVLTSKILGTLAQNLGKDVKVSEVHGMSQRGGSVVAYVKFGDKVYSPVVEKGTADIVLAFEMLEGARYVDYLKENGKLVVNTQRIDPMPVITGDMEYPADLGEKLEELNIGYIPVDALSLAKNAGTIKAVNVALIGVLAQNSNIKKEEWIKAIKDTVPEKFLELNLKAFELGYNLE | soluble |
| MNKKIVMSFLAATVVTISGCASFADMAGADSATLNASAAQGFSKMTTEARQKGQLDTSSNTYRRINTVMQRMIPYANQMNQTGQPFQWQLAVIKSDTVNAYVAPGGKVVFYTGIVNKLNLSDAEIAAVMGHEMTHALEEHAKSKIGAEALTGLALNIGKAYAGDSIGQAGSAALDLGSQVGVGLPYSRNLESRADYGGLMLMAKAGYNPQAAITLWEKMNRMDGAGGPSFLSTHPSNNQRIQDMRKNLPAAMAVYNNRRLEHHHHHH | not soluble |
| MNKQEVILKVQECAAWWILERQSKLTKLMSETMSINPFMTPFIFDYHSLNDFDELVEAIIAKHLMTGHDTGFGKLIDEKILPRVFGAYKLDKSYRAANEPFIHPCFDEIDHVIQRDDGRIELLSLKAGKWTIQLTMAVQLNKAFHEIINNYPGVADNIVVGVFYGNSHGLTDKYRILRGINTGANHNVIDIRDKVHVYAGKEFWSWLNNGEAETQHWVLEGIERAVKEADIKEKNKDLIEKFKEHVAKKYNEQVLNADGTAQWHKLLEMINE | soluble |
| MNKTIIAERFSKAISTYPREANVQRQIANKMIRLLQKHIPSPCPKVIEFGCGTGIYSRMLLRTLRPEELLLNDLCPEMRYCCEDLLREKQVSFLSGDAETISFPDKSTLITSCSALQWFDSPEEFFKRCNTLLHSQGYFAFSTFGKKNMKEIRELTGKGLPYRSREELEAALSLHFDILYSEEELIPLSFEDPMKVLYHLKQTGVNGLSAQSSLYPKHEKQTWTRRDLQHFCERYTQEFTQGTSVSLTYHPIYIIAKKKKV | soluble |
| MNKTNQIVDLLTNKQNNSIQRRDNLVFVKNEQEFKDILDSTISLSNVYDPLLGNGCEQEKIKELTILNNSVDISKIEEYTKTLESKVDDLYNNVSNQLIQDYQKNENTSANNIIMKNEELLNSHLKEVEKICEQLIDEWKIEILGEVNFKFQQQLIEIDQKQEHKLKVKSLINEDSFLTKRQVKNKNKILTEFEKHRSQITQNYLNKRSDILKKEYDELLKDDKLFELSSGDNWNNFKKITLFISNEIGIINDLEDLLNHQELIRTRNYTKRAILNQHHINGHFKDEKKYLKSLYDLRVKFMYGLGSEIVILKFLIEHYKKLNSLRLRLETLNHPLSNYAVYFDILNRIEKQTQLLAKIETLKYDNYDFNADVILDDLESNITKINEIKHNSNVLNKTKVIKTIIEPKYELELISKDDKVDGVKVYVNDQEILSKLEHHHHHH | not soluble |
| MNKTYMLDTCICSFIMREQPEAVLKRLEQAVLRGQRIVVSAITYSEMRFGATGPKASPRHVELVDAFCARLDAILPWDRAAVDATTEIKVALRMAGTPIGPNDTAIAGHAIAAGAVLVTNNTREFERVPGLVLEDWVR | not soluble |
| MNLEPPKAECRSATRVMGGPCTPRKGPPKCKQRQTRQCKSKPPKKGVQGCGDDIPGMEGCGTDITVICPWEACNHCELHELAQYGIC | soluble |
| MNLFQNLALKYSHTMMEKSLQKGFNVELLKQPEEKIPKQDKSYMLYAHVPFCHTFCPYCSFHKYYYDENLAKVYFQNLREEIKIMKNKGFDFTSMYVGGGTTLIDEEELLKTLELCKKLFNIKEISCESDPNHIDPNKLSMFKGIIDRLSCGIQSFDDETLKKVARYNKFGSSKELQEKISKALGILPIFSIDLIFNLPGQNEKQLLNDLEIAKNLAPQQITTYPLMKSNLTKDNIAKSLGVSIKDNEFTYYQIIREFFKDYTQNNGWSFSLEKNKLNDEYVSSHHEYLGVGSGAFSFLDGELLINAFNLNDYAKFIQEKQNANIAKACFDKKEIIKYVFLTGIFSGKIEIDKFNKTLNCNLEKELFIELLGLKTSGAIIKDQNALIATEFGQYLFVVLMKDFYTGMDLVRAVFRDDKRLKNKDYIDIMKENIDPLNSASMEFKAETN | not soluble |
| MNLIPQDVLKKYLLPIRDLATSTFVFKKKYTRECQRSTPRNFINQFLLLFLKVPFSLLQELKLSKMLEIDKDKKVLIGCLAGSFLFYHTARQIYSYMSVKPREWVPVGVVKSLHIFPIKSCKSVDVFAFKCTKLGPVMGDLEDRAFMLVEESTGKFITARQKPKLVHVENYMTDGMLEVTVPGQPKLSVDLRKVLQNKRTIRATLFKNLKQDGYDCGDEVAKLLSDYIEEPNYRLIFYKEGLYTERTVIPDDQWWNNPVPKRNDDSGFTDLAPFHIATDASLKVLNEKLDNKITMRYFRPSIYIEGCAAWDEDKWAEIRIGDAHLECFAPCTRCVLTTVDPVKGEMSKEMQPLKKLREFRLVPDGKMRKVHMESPVFGVYAGLVNEGYIHTGQTVYVRYKPTAF | not soluble |
| MNLLQCYPTTTVDEMNCEEWGNGTESTQSVAACQGCIELRKEVTDLRQAVNLILPMLPLYPTIGNGFNATGLAAQPTLQHVIQQSLLRKRPVAQTPTVPQPECPGQIRPVLSSPAAALQNVIMLNPWIMGSSLKPASPTLPNGQIPTTIGETSLQGTDDQTVKWIGPSSVDSNGQKTDSSAASAGDNQNIDVIGDGSESPTSSNHSAQEIALMTSQQTFLNALKDSSFLFTNPVPTVETAPPLRVAPPINGTTNGTAKAGGPERKPRKPVNDDIVKIVRNQDLSEENISMFEIPVPKAIASDPTFRPVSEQQIIQQIIQGKKYEEMEVGECMIQLCKKLAEKRVFGPRLMSQTTVAGLNHSNYANLPIKGICYIQHVCRKVLYDKFENEEDFWDKFREAMRKLAARCRRVRHAKKTKHNREEAQAEMLSKRYGEDMPFNLNGAGLIRPKVETVSPEANILNSDQIKSQLESLFAHIPKTESETPLIEIIQQNISLFTHLIRTKVESQSPPLQGPQ | not soluble |
| MNLLVTSSLGVLLHLVVLCQADDHSELLVNTKSGKVMGTRVPVLSSHISAFLGIPFAEPPVGNMRFRRPEPKKPWSGVWNASTYPNNCQQYVDEQFPGFSGSEMWNPNREMSEDCLYLNIWVPSPRPKSTTVMVWIYGGGFYSGSSTLDVYNGKYLAYTEEVVLVSLSYRVGAFGFLALHGSQEAPGNVGLLDQRMALQWVHDNIQFFGGDPKTVTIFGESAGGASVGMHILSPGSRDLFRRAILQSGSPNCPWASVSVAEGRRRAVELGRNLNCNLNSDEELIHCLREKKPQELIDVEWNVLPFDSIFRFSFVPVIDGEFFPTSLESMLNSGNFKKTQILLGVNKDEGSFFLLYGAPGFSKDSESKISREDFMSGVKLSVPHANDLGLDAVTLQYTDWMDDNNGIKNRDGLDDIVGDHNVICPLMHFVNKYTKFGNGTYLYFFNHRASNLVWPEWMGVIHGYEIEFVFGLPLVKELNYTAEEEALSRRIMHYWATFAKTGNPNEPHSQESKWPLFTTKEQKFIDLNTEPMKVHQRLRVQMCVFWNQFLPKLLNATACDGELSSSGTSSSKGIIFYVLFSILYLIF | soluble |
